# Experimental data from PMC4338028, “Studies of a Murine Monoclonal Antibody Directed against DARC: Reappraisal of Its Specificity” (PLoS ONE, 2015).
# Square brackets hold non-standard residues; d marks the D form. Ends that are not written are not given here. sY = N[C@@H](Cc1ccc(OS(=O)(=O)O)cc1)C(=O)O
# B1: 2C3 Fab fragment (Fab, V domains shown)
# VH: EVKLVESGGDLVQPGGSLKLSCAASGMTFSSYGMSWVRQTPDKRLELVASINRNGGSTYYPDSVKGRFTISRDNAKNTLYLQMSSLKSEDTAMYFCVRAGDYLSMDYWGQGTSVTVSS
# VL: ELVMTQTPLSLPVSLGDQASISCRTSQSLLHSNGNTYLHWYLQKPGQSPKLLIYKVPNRFSGVPDRFSGSGSGTDFTLRITRVEAEDLGVYFCSQSTHVYTFGGGTKLEIK
# notes: variable region of the heavy chain, as the VH of m1; CH1 part of the Fab; variable region of the light chain, as the VL of m1; light chain constant domain of the Fab; Cloned by PCR from total RNA of the hybridoma into pComb3H; also called 2C3-derived Fab; source: E. coli (pComb3H vector), purified
# B2: murine anti-Fy6 monoclonal antibody 2C3 (clone name NaM185-2C3) (antibody, V domains shown)
# VH: B1 VH
# VL: B1 VL
# notes: variable region of the heavy chain; murine heavy chain constant region; variable region of the light chain; murine light chain constant region; Whole murine antibody; The variable regions were cloned from the hybridoma for the Fab; also called 2C3 MAb; MAb 2C3; source: 2C3-producing hybridoma
# Columns and labels:
# [1] = molecular target: ECD1-nuc after phosphorylation by Src kinase (phosphate on Tyr-30) (human); experiment: SPR; ECD1-nuc (Tyr-54 of nuclease removed) immobilised as ligand, nuclease in the reference cell; 2C3 Fab as analyte; measured before and after phosphorylation on the chip by Src kinase; Biacore X100
# [2] = molecular target: ECD1-nuc with the phosphorylation site on Tyr-54 of nuclease removed, not phosphorylated (human); experiment: as above
# [3] = molecular target: T1, first extracellular domain of DARC followed by nuclease from Staphylococcus aureus (ECD1-nuc), wild type (Homo sapiens, UniProt Q16570); experiment: ELISA; direct: plate coated with wild-type ECD1-nuc (0.1 μg per well), 2C3 Fab diluted in TBS, 1 h at room temperature; detected with anti-Fab antiserum conjugated with alkaline phosphatase; triplicates; details: both partners purified
# T1 construct: Duffy Antigen Receptor for Chemokines (DARC, ACKR1), first extracellular domain (ECD1); also called WT ECD1-nuc; consensus ECD1; source: E. coli BL21, purified (Capto-S ion exchange, reversed-phase chromatography); not shown: nuclease from Staphylococcus aureus, C-terminal, kept
# [4] = molecular target: T2, Duffy Antigen Receptor for Chemokines (DARC), full-length consensus, expressed in K562 cells (human) (UniProt Q16570); experiment: SPR; DARC purified from K562 cells immobilised at ca. 400 RU, reference cell only activated and deactivated; 2C3 Fab as analyte; measured before and after deglycosylation on the chip with N-glycosidase; Biacore X100
# T2 sequence (chain, N-linked oligosaccharide chains (as made in K562 cells)): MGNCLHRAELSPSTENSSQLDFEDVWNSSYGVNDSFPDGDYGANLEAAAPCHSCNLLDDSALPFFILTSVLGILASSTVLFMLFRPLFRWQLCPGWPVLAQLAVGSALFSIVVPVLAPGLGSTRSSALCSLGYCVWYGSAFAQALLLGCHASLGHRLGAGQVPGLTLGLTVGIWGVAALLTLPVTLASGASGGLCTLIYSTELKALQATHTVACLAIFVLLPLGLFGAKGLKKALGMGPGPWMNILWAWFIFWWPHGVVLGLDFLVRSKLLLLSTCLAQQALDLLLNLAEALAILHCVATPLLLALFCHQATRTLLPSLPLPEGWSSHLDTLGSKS
# [5] = molecular target: T3, DARC from K562 cells after deglycosylation (Homo sapiens, UniProt Q16570, oligosaccharides removed by PNG-ase F on the chip); experiment: as above; details: both partners purified
# T3 construct: Duffy Antigen Receptor for Chemokines (DARC, Atypical Chemokine Receptor 1), full length; m15 after treatment on the chip; also called deglycosylated DARC; source: K562 cells expressing DARC, purified on an immobilised anti-DARC nanobody; deglycosylated with N-glycosidase (PNG-ase F) on the sensor chip
# [6] = molecular target: T1, first extracellular domain of DARC …; experiment: SPR; 2C3 MAb or 2C3 Fab immobilised by amine coupling (about 400 RU), anti-Kx2 antibody in the reference cell; ECD1-nuc as analyte at 5 concentrations; association 100 sec, dissociation 600 sec; Biacore X100, CM5, HBS-EP; 1:1 Langmuir model; details: both partners purified
# [7] = molecular target: T4, synthetic peptide DFEDVWNSSYG (residues 21-31 of ECD1 of DARC) (Homo sapiens); experiment: SPR; competition: 2C3 MAb (culture supernatant diluted 40 times) incubated 1 h at room temperature with the synthetic peptides, then injected over 2000 RU of immobilised WT ECD1-nuc (nuclease in the reference cell); RU read at 90 sec; Biacore X100, CM5, HBS-EP; the pair peptide and MAb; details: one partner purified
# T4 construct: DARC (ACKR1), residues 21-31 of ECD1; also called non-sulfated peptide; source: synthetic peptide; bought: Cambridge Research Biochemicals
# T4 chain: DFEDVWNSSYG
# [8] = molecular target: T5, Duffy Antigen Receptor for Chemokines (DARC), full-length consensus, expressed in K562 cells (Homo sapiens, UniProt Q16570, N-linked oligosaccharide chains (as made in K562 cells)); experiment: flow cytometry on cells; about 10^6 transfected K562 cells incubated 1 hour with 2C3 MAb culture supernatant in PBS-0.2% BSA, PE-conjugated secondary antibody; read-out is the ratio of % cells positive with 2C3 MAb to % positive with the anti-Fy^a antibody; cells with mean fluorescence above 10^2 counted as positive; details: partners not purified
# T5 construct: also called ACKR1; DARC from K562 cells; source: K562 cells, transfected, selected with geneticin: on cells (flow cytometry); purified from the lysate on an immobilised anti-DARC nanobody, eluted with peptide DFEDVW (SPR)
# [9] = molecular target: T6, full-length DARC with Tyr-30 replaced by Ala, on K562 cells (Homo sapiens, UniProt Q16570, Y30A (printed as the sequence FEDVWNSSA)); experiment: as above; details: partners not purified
# T6 construct: DARC (ACKR1), full length, mutant; source: K562 cells, transfected, on cells
# [10] = molecular target: T7, full-length DARC with Tyr-30 replaced by Glu, on K562 cells (Homo sapiens, UniProt Q16570, Y30E (printed as the sequence FEDVWNSSE)); experiment: as above; details: partners not purified
# T7 construct: DARC (ACKR1), full length, mutant; source: K562 cells, transfected, on cells
# [11] = molecular target: T8, full-length DARC without the glycosylation site at Asn-27 (Ser-29 replaced by Ala), on K562 cells (Homo sapiens, UniProt Q16570, S29A (printed as the sequence FEDVWNSAY), site N27 is not glycosylated); experiment: as above; details: partners not purified
# T8 construct: DARC (ACKR1), full length, mutant; source: K562 cells, transfected, on cells
# [12] = molecular target: T9, full-length DARC with Ser-29 and Tyr-30 replaced by Ala, on K562 cells (Homo sapiens (Human)., UniProt Q16570, S29A (printed as the sequence FEDVWNSAA) | Y30A (printed as the sequence …, site N27 is not glycosylated)); experiment: as above; details: partners not purified
# T9 construct: DARC (ACKR1), full length, mutant; source: K562 cells, transfected, on cells
# [13] = molecular target: T10, full-length DARC with Trp-26 replaced by Phe, on K562 cells (Homo sapiens (Human)., UniProt Q16570, W26F (printed as the sequence FEDVFNSSY)); experiment: as above; details: partners not purified
# T10 construct: DARC (ACKR1), full length, mutant; source: K562 cells, transfected, on cells
# [14] = molecular target: murine anti-Fy6 monoclonal antibody 2C3 (clone name NaM185-2C3) (mouse); experiment: SPR; competition: 2C3 MAb (culture supernatant diluted 40 times) incubated 1 h at room temperature with the synthetic peptides, then injected over 2000 RU of immobilised WT ECD1-nuc (nuclease in the reference cell); RU read at 90 sec; Biacore X100, CM5, HBS-EP; the pair peptide and MAb
binder,measurement,setting,value
B1,Kd,[1],0.459 nM
same,koff,[1],0.000777 s⁻¹
same,kon,[1],1.69e+06 M⁻¹ s⁻¹
same,Kd,[2],14.2 nM
same,koff,[2],0.000766 s⁻¹
same,kon,[2],53900 M⁻¹ s⁻¹
same,fold lower affinity than 2C3 MAb (ELISA),[3],~2 fold
same,Kd,[4],0.263 nM
same,koff,[4],0.000547 s⁻¹
same,kon,[4],2.08e+06 M⁻¹ s⁻¹
same,Kd,[5],0.0283 nM
same,koff,[5],0.000276 s⁻¹
same,kon,[5],9.75e+06 M⁻¹ s⁻¹
same,Kd,[6],93 nM
B2,Kd,[6],1.1 nM
same,IC50,[7],410 ± 40 nM
same,ratio of % cells positive with 2C3 MAb to % cells positive with anti-Fy^a MAb,[8],0.97 ± 0.07
same,ratio of % cells positive with 2C3 MAb to % cells positive with anti-Fy^a MAb,[9],0.75 ± 0.03
same,ratio of % cells positive with 2C3 MAb to % cells positive with anti-Fy^a MAb,[10],1.16 ± 0.09
same,ratio of % cells positive with 2C3 MAb to % cells positive with anti-Fy^a MAb,[11],0.97 ± 0.04
same,ratio of % cells positive with 2C3 MAb to % cells positive with anti-Fy^a MAb,[12],0.95 ± 0.03
same,ratio of % cells positive with 2C3 MAb to % cells positive with anti-Fy^a MAb,[13],0.19 ± 0.02
DFEDVWNSS[sY]G [synthetic sulfated peptide …(SO3H)G (residues 21-31 of ECD1 of DARC)],IC50,[14],252 nM
